In data set [1] the target is JO-4 (affinity-enhanced junction opener; self-dimerizing HAdV3-V239D fiber knob) (human adenovirus type 3 (HAdV3)) (UniProt P04501). The data set is described as follows: SPR. In general terms: Surface plasmon resonance follows binding to a sensor surface in real time, without labels.
The data set “crystal structure” deals with the molecule itself. The data set is described as follows: crystal structure.

In the case of “Recombinant human DSG2 protein (desmoglein 2) (from UniProt Q14126 50-609) (receptor)”, in data set [1], the Kd stood at 1.4 nM.

B1: HAdV3 fiber knob mutant V239D (nondimerized, trimeric) (domain or fragment, human adenovirus type 3 (HAdV3))
chain: ALKNNTLWTGPKPEANCIIEYGKQNPDSKLTLILVKNGGIVNGYVTLMGASDYVNTLFKNKNVSINVELYFDATGHILPDSSSLKTDLELKYKQTADFSARGFMPSTTAYPFDLPNAGTHNENYIFGQCYYKASDGALFPLEVTVMLNKRLPDSRTSYVMTFLWSLNAGLAPETTQATLITSPFTFSYIREDD
On to B1, for which the binding result in the data set “crystal structure” is recorded as “binds”.

Broadly, the Kd is the free concentration of one partner at which half of the binding sites on the other are occupied at equilibrium, for simple one-to-one binding.

Source of the values: paper PMC4445001 (Molecular Therapy. Methods & Clinical Development, 2015).
